Tested on: MS2 coat protein
Test: apparent KD of MS2 coat protein; designed switch direction (-1 OFF switch, 1 ON switch): -1; higher = weaker reporter binding
Outline: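 An oligonucleotide input, 200 uM small-molecule ligand, or no input was present during titration of SNAP-549-labelled MS2 coat protein, which was doubled from 0.7 or 1.5 nM to 3 µM. Designed RNA switches had been transcribed on Illumina chips by stalled E. coli RNA polymerase. Apparent KD per design is the median over clusters of curves fitted to normalised cluster fluorescence.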

[1] = Eterna round: R95, input ligand: FMN 200 uM
[2] = Eterna round: R95, input ligand: microRNA oligo, concentration not stated
[3] = Eterna round: R95, input ligand: none
[4] = input ligand: microRNA oligo, concentration not stated

Sequence: UGUGUGUGAGGAUAUACAAUGGGCCCGGGAAACCGGGCCCUACAUGAGGAUCACCCAUGUAGAAGGCGCGCGCG [-39.6, -37.5 kcal A 24%, 0,6bis] (Eterna round: R97, puzzle: Exclusion 2)
- apparent KD of MS2 coat protein (input ligand: FMN 200 uM): 47.2 nM
- apparent KD of MS2 coat protein (input ligand: none): 73.6 nM

Sequence: GAUUAUGCGAGCUUUAGGGACAUGAGGAUCACCCAUGUUCGUCUUAUUAGUCUAGAUACACUGACAUACCUAAAUCU [JMF 57] (puzzle: Sensor v3, turn-off variant 1)
- apparent KD of MS2 coat protein [1]: 14.5 nM
- apparent KD of MS2 coat protein [2]: 18.2 nM
- apparent KD of MS2 coat protein [3]: 13.8 nM

Sequence: UCGGCGCGAGGAUAUACGUUUGCUUUUUUGGGUCGUUGCGUACAUGAGGAUCACCCAUGUAGAAGGCGCGCCGC [Apr-15 SS2-25] (puzzle: Exclusion 2)
- apparent KD of MS2 coat protein [2]: 24.1 nM

Sequence: GGGAAGAACCAACAAGUAGACAUGAGGAUCACCCAUGUAGACUUCAUGUAGGAAAGGAAAGGAAGAGCUCGUCUUAU [AK-miRNA-r3-12] (Eterna round: R97, puzzle: Sensor, turn-off variant 1)
- apparent KD of MS2 coat protein (input ligand: FMN 200 uM): 21.6 nM
- apparent KD of MS2 coat protein (input ligand: none): 28.5 nM

Sequence: CAGUACUGAGGAUAUACAUGAGGAUCACCCAUGUCAGAGAUACUAGUGAGGUCGAUUAGUAGAAGGCAGUACUG [Mat X3R4 m30] (Eterna round: R97, puzzle: Exclusion 3)
- apparent KD of MS2 coat protein (input ligand: FMN 200 uM): 621 nM
- apparent KD of MS2 coat protein (input ligand: none): 43.5 nM

Sequence: UACAUGAGGAUCACCCAUGUUUUGUCGUGUAUGGUAUUUAUCUAGGAUAUCAAUUUGUUUAUGUAUGAGAAGGAGAAUAUUAAU [JMF's solution 72] (Eterna round: R96, puzzle: Exclusion NG 3)
- apparent KD of MS2 coat protein (input ligand: FMN 200 uM): 32.9 nM
- apparent KD of MS2 coat protein [4]: 28.4 nM
- apparent KD of MS2 coat protein (input ligand: none): 35.6 nM

Sequence: UUGAUUCAUUCCUCCAUAAACAUGAGGAUCACCCAUGUAAGUGAGGAUAUAGUUUGUUUAGUAUACUAGAAGGCACUUAGAUAU [JR_ExcNG3_Sub046] (Eterna round: R96, puzzle: Exclusion NG 3)
- apparent KD of MS2 coat protein (input ligand: FMN 200 uM): 12.7 nM
- apparent KD of MS2 coat protein [4]: 9.61 nM
- apparent KD of MS2 coat protein (input ligand: none): 12.6 nM

Sequence: GGUGGACAUGAGGAUCACCCAUGUGAGGAUAUCGGCCGGCUCGUGGUGGCUGGCUUCUCGAGAAGGCGCAUAGU [Exclusion 1 V75] (puzzle: Exclusion 1)
- apparent KD of MS2 coat protein [2]: 50.6 nM

Sequence: GGAUAAAACUGAGGAUAUGCGGAGAGAGAGAGAGCAGAAGGCAGACAUGAGGAUCACCCAUGUGAGUUCUCGAUAAGAAACACG [Prohibition 57 - Jieux - Exclusion NG 1] (Eterna round: R96, puzzle: Exclusion NG 1)
- apparent KD of MS2 coat protein (input ligand: FMN 200 uM): 107 nM
- apparent KD of MS2 coat protein [4]: 24 nM
- apparent KD of MS2 coat protein (input ligand: none): 31.8 nM

Sequence: AAGAAACAUGAGGAUCACCCAUGUGAGGAUAUGAUAAAGAAAAGAAAAGAAAGAAGAGUCAGAAGGCACAAAGG [salish99-ex1_r3_037] (puzzle: Exclusion 1)
- apparent KD of MS2 coat protein [1]: 71.6 nM
- apparent KD of MS2 coat protein [2]: 35.8 nM
- apparent KD of MS2 coat protein [3]: 47.4 nM

Sequence: AUAAUUAGUUCAGGAUAUCAGCACGUGUAGUGCUGAGAAGGGAACAUGAGGAUCACCCAUGUGAUCAAUAUUAUAAUUUUAAUU [ENG1/12-B3] (Eterna round: R96, puzzle: Exclusion NG 1)
- apparent KD of MS2 coat protein (input ligand: FMN 200 uM): 420 nM
- apparent KD of MS2 coat protein [4]: 925 nM
- apparent KD of MS2 coat protein (input ligand: none): 1190 nM

Sequence: ACAUGAGGAUCACCCAUGUCAGGCUGGUCCGCUCCGGCUGUUGAGGAUAUAGCUCGGUGUCCGCGCUAGAAGGUGAGGGCCGGC [Aenatbe mod 32] (Eterna round: R96, puzzle: Exclusion NG 3)
- apparent KD of MS2 coat protein (input ligand: FMN 200 uM): 25.3 nM
- apparent KD of MS2 coat protein [4]: 19.3 nM
- apparent KD of MS2 coat protein (input ligand: none): 24.6 nM

Sequence: GAGAAACAUGAGGAUCACCCAUGUCAGGAUAUUCGGAGGAGAGGGAAGAGAGAGAGGAGAAGAAGGGACGAGAG [Exclusion 1 Rhiboswitch & Hairpin Submission (Joejoemyo11)] (puzzle: Exclusion 1)
- apparent KD of MS2 coat protein [1]: 38.7 nM
- apparent KD of MS2 coat protein [2]: 26 nM
- apparent KD of MS2 coat protein [3]: 55.7 nM

Sequence: UGCCGUAGAGGAUAUACAUUGAAUAAGAUUCAUGUAAAACUACAUGAGGAUCACCCAUGUAGAAGGCUAUGGCU [JL-ex2-4.37 Eli mod] (Eterna round: R97, puzzle: Exclusion 2)
- apparent KD of MS2 coat protein (input ligand: FMN 200 uM): 38.6 nM
- apparent KD of MS2 coat protein (input ligand: none): 14.7 nM

Sequence: CUCAGACAUGAGGAUCACCCAUGUGAGGAUAUGAUGCGAUCGUCGAAAGACGAUAGCAUCAGAAGGUACAAAUG [Fiskers Ex 1 - 20] (puzzle: Exclusion 1)
- apparent KD of MS2 coat protein [2]: 55.3 nM

Sequence: AUUGUUUAUGUAGGAUAUGCCUGGCGUGCCUUUGCAGAAGGACAUGAGGAUCACCCAUGUAACAUGAGGCUCACCCUUGUCGCA [salish99_ExNG1_r04_114] (Eterna round: R96, puzzle: Exclusion NG 1)
- apparent KD of MS2 coat protein (input ligand: FMN 200 uM): 147 nM
- apparent KD of MS2 coat protein [4]: 81.4 nM
- apparent KD of MS2 coat protein (input ligand: none): 95.5 nM
